Reference: US9657088B2, “Anti-HSV antibody” (priority 2009, dated 2017)

What was measured:
[1] = test system: patient derived HSV-1 isolate resistant towards Acyclovir, Foscarnet and Cidovovir; assay: Treatment of NOD/SCID mice infected with multi-resistant patient HSV-1 isolate; assay type: in vivo; details: for protection against lethal encephalitis: 15 mg/kg i.v. at 24 h, 40 h and 56 h post infection
Source text: Mice receiving twice daily standard treatment with Acyclovir all died within 28 days.
Furthermore, the humanized mAb 2c-V1 also confers protection from viral dissemination and lethal encephalitis in the presence of an established peripheral HSV infection. […] In contrast, mice receiving Acyclovir all died (FIG. 12).

human DNA polymerase = details: background statement; cited from earlier work
HSV-1 F [2] = assay: Cell-to-cell spread assay in Vero cell monolayers; assay type: cell-based; details: 500 nM, 48 h
Protocol: Vero cells grown to confluency on glass cover slips in 24-weel tissue culture plates are infected for 4 h at 37° C. with a constant virus amount of 400 TCID50/well. One median tissue culture infective dose (1 TCID50) is the amount of a cytopathogenic agent, such as a virus, that will produce a cytopathic effect in 50% of the cell cultures inoculated. The virus inoculum is subsequently removed, the cells washed twice with PBS and further incubated for 2 days at 37° C. in 1 ml DMEM, 2% FCS, Pen/Strep containing an excess of either different anti-HSV antibodies or polyclonal anti-HSV control serum in order to prevent viral spreading via the supernatant Viral antigens of HSV-infected cells are detected with a fluorescence labelled polyclonal goat-anti-HSV-serum (BETHYL Labolatories, Montgomery, Tex. USA, Catalog No. A190-136F, Lot No. A190-136F-2).
Two days after infection spreading of the virus was detected with fluorescence labeled polyclonal goat-anti-HSV serum using a Leica DM IRE2 confocal microscope at 40-fold magnification.
For spreading within a host HSV uses two mechanisms: release of cell-free particles and direct, cell-to-cell spread. […] Viral antigens were detected by staining of HSV-1 infected cell monolayers with FITC-conjugated polyclonal goat-anti-HSV serum (BETHYL, Montgomery, Tex., USA) diluted 1:100 in blocking buffer. […]

HSV-1 F [3] = assay: Passive immunization of NOD/SCID mice 24 h before intravaginal HSV-1 challenge; assay type: in vivo; details: 24 h prior to infection
Protocol: Mice were infected intravaginally with 1×10^6 TCID50/20 μl of the neurovirulent HSV-1 strain F. Infected mice with symptoms of weight loss, vulvitis/vaginitis or neurological diseases were killed, and their organs examined for infectious virus by titration on Vero cell monolayers as described previously. Non-infected mice were killed at day 30. Animals per group n=7.
Animals per group n=7 for PBS, n=9 all other groups.
(§1) Anesthetized female nonobese diabetic/severe combined immunodeficient (NOD-SCID) mice (NOD.CB17-Prkdc^scid/J, Charles River Laboratories, Research Models and Services, Sulzfeld, Germany), 6-8 weeks of age, were challenged intravaginally with 20 μl inoculum of 1×10^6 TCID50 HSV-1 F per mouse. Skin glue (Epiglu, Meyer-Haake Medical Innovations, Wehrheim, Germany) was applied onto the vulva to prevent discharge of the virus inoculum. […] Mice were examined daily after viral inoculation for loss of weight, vulvitis/vaginitis (redness, mucopurulent discharge and signs of inflammation) and neurological disease. Mice displaying any of theses symptoms were sacrificed immediately. […] Mice were assessed for infection by determination of virus titers from vaginal irrigations obtained on days 1, 2, 4, 6 and 8 after infection and at the time of death using the endpoint dilution assay on Vero cells. Viral loads in organs (spleen, adrenal gland, lung heart, liver, kidney, spinal cord, and brain) of sacrificed mice were determined after homogenization of organs by titration on Vero cell monolayers as described elsewhere (41). Each test and control group contained 9-10 animals with detectable HSV-1 infection.
Natural killer (NK) cells accumulating at the site of HSV-2 infection in humans (28) are the early source of interferon-γ (45), which plays an essential role for the control of HSV infection (2, 45, 62).

[4] = test system: HSV-2 G and ACV-resistant HSV-2 isolates; assay: Neutralization of HSV-2 strain and isolates (FIG. 8); assay type: cell-based; details: 100 TCID50, 3 days
Protocol: (§2) To determine the titer of mAb h2c-V1 for complete virus neutralization several antibody concentrations were incubated for 1 h at 37° C. with 100 TCID50 of HSV-1 or HSV-2 isolates and incubated for 3 days with Vero cells. MAb hu2c-V1 neutralizes HSV-1 laboratory strains HSV-1 F, HSV-1 324 hv, HSV-1 17 syn^+, HSV-1 TK^− completely at concentrations of 7.8-15.6 nM. HSV-1 clinical isolates are neutralized by mAb h2c-V1 similarly irrespective of their resistance profile. Furthermore, the same neutralization efficiency of mAb hu2c-V1 was shown for strain HSV-2 G and ACV-resistant HSV-2 isolates at concentrations of 31.3-62.5 nM.

HSV-1 F [5] = assay: Post-exposure treatment of NOD/SCID mice with established HSV-1 infection; assay type: in vivo; details: 15 mg/kg i.v. at 24 h, 40 h and 56 h post infection
Protocol: Infected animals per group n=7.
Vaginal virus titers of antibody or control treated mice were determined from vaginal irrigations cultured on Vero cell monolayers. Error bars indicate standard deviation.
as §1

HSV-1 = assay: Plaque-reduction assay with or without human complement; assay type: cell-based; details: 2 μg/ml, with or without 10% human complement
[6] = test system: HSV-1 laboratory strains and clinical isolates; assay: Neutralization of HSV-1 laboratory strains and clinical isolates (FIG. 8); assay type: cell-based
Protocol: as §2

[7] = biological target: T1, glycoprotein B on surface of HSV-1 F infected Vero cells (Human herpesvirus 1, UniProt P06436); assay: Affinity constants (KD) by flow cytometry on HSV-1 F infected Vero cells; assay type: binding
T1 construct: expressing the gB-protein as membrane associated glycoprotein on the cell surface during the natural HSV replication cycle; endogenous in cells; host or cells: Vero cells infected with HSV-1 F (MOI 3); gB is made by the virus in the infected cell

[8] = biological target: T2, gB present on the surface of HSV-1 infected Vero cells (Human herpesvirus 1, UniProt P06436); assay: Competition study with mAb 2c by flow cytometry; assay type: binding; details: increasing concentrations, then 100 nM mAb 2c
T2 construct: endogenous in cells; host or cells: Vero cells infected with HSV-1 (3 moi, 20 h)

| Molecule | outcome of infection ([1]; standard treatment with Acyclovir) | time by which all mice died ([1]; twice daily standard treatment) [days] | factor by which human DNA polymerase is less susceptible than viral DNA polymerase (human DNA polymerase) | inhibition of cell-to-cell spread (HSV-1 F [2]) | protection against lethal encephalitis (HSV-1 F [3]; 15 mg/kg i.v.) | survival (HSV-1 F [3]; single i.v. dose of 5 mg/kg) | concentration for complete neutralization [4] [nM] | protection from lethal outcome of established infection (HSV-1 F [5]) | complement dependence of HSV neutralization (HSV-1) | protection against lethal encephalitis ([1]; listed as mAb 2c-V1) | protection against lethal encephalitis ([1]; listed as mAb hu2c-V1) | concentration for complete neutralization ([6]; HSV-1 F, HSV-1 324 hv, HSV-1 17 syn+, HSV-1 TK−, 100 TCID50, 3 days) [nM] | neutralization of patient isolates clinically resistant to ACV, ACV and PFA, or ACV, PFA and CDV ([6]; compared with non-resistant laboratory strains) | affinity in comparison to mAb 2c [7] | competition with parental mAb 2c for binding [8] |
| --- | --- | --- | --- | --- | --- | --- | --- | --- | --- | --- | --- | --- | --- | --- | --- |
| Nc1nc(=O)c2ncn(COCCO)c2[nH]1 [Acyclovir, 2-Amino-9-(2-hydroxyethoxymethyl)-3H-purin-6-on, reference compound] | all died | ≤ 28 | 30-50 | – | – | – | – | – | – | – | – | – | – | – | – |
| h2c-V1: humanized mAb 2c variant, CDR grafting onto DP28/DPK13, no backmutations (antibody, V domains shown) VH: QVTLKESGPALVKPTQTLTLTCTFSGFSLSTSGMSVGWIRQPPGKALEWLAHIWWNNDKYYKPALKSRLTISKDTSKNQVVLTMTNMDPVDTATYYCARIYYGYRPYAMDYWGQGTLVTVSS VL: DIVMTQTPLSLPVTPGEPASISCRSSQSIVHSNGNTYLEWYLQKPGQSPQLLIYKVSNRFSGVPDRFSGSGSGTDFTLKISRVEAEDVGVYYCFQGSHVPWSFGQGTKVEIKR | – | – | – | as efficient as the parenteral mAb 2c | fully protected against lethal encephalitis | prolongs the survival | 31.3 to 62.5 | completely protected from the lethal outcome of infection | neutralize HSV complement-independent | prevented lethal encephalitis | significantly protected against lethal encephalitis | 7.8 to 15.6 | with the same efficiency as non-resistant laboratory strains or clinical isolates with unknown resistance | affinity comparable to the murine mAb 2c | compete with the parental mAb 2c for binding to gB |
